Laboratory results reported in patent US20170349646A1.

Biological target: recombinant nucleoprotein derived from influenza virus subtype A H1N1 (Sino Biological, 40205-[change]) (influenza virus subtype A H1N1)

B1: VHH antibody consisting of the amino acid sequence represented by SEQ ID NO: 08 (VHH)
VHH: EVQLVESGGGLVQAGDSLRLSCAASGRTFINLDMGWFRQPPGKEREYVAAITRNGAITSYADSAKGRFTISRDNAKNTVSLEMNSLKPEDTGVYYCAAYSISNYGSGWYKPDYWGQGAQVTVSS
EC50 (read off the curve): 0.2 µg/mL
